This data set deals with the molecule itself. Nature of the data set: SEC; Superdex 75 10/300 GL, 50 mM Tris-HCl pH 7.5, flow 0.5 mL/min; protein at 2 µg/µL, 150 to 300 µL; column calibrated with LMW Gel Filtration kit. (Size exclusion chromatography separates by hydrodynamic size, large species first.)

B1: VvROMT variant W20A (enzyme, Vitis vinifera, UniProt B6VJS4 1-357, looked up)
chain: MDLANGVISAELLHAQAHVANHIFNFIKSMSLKCAIQLGIPDIIHNHGKPMTLPELVAKLPVHPKRSQCVYRLMRILVHSGFLAAQRVQQGKEEEGYVLTDASRLLLMDDSLSIRPLVLAMLDPILTKPWHYLSAWFQNDDPTPFHTAYERSFWDYAGHEPQLNNSFNEAMASDARLLTSVLLKEGQGVFAGLNSLVDVGGGTGKVAKAIANAFPHLNCTVLDLSHVVAGLQGSKNLNYFAGDMFEAIPPADAILLKWILHDWSNEECVKILKRCREAIPSKENGGKVIIIDMIMMKNQGDYKSTETQLFFDMTMMIFAPGRERDENEWEKLFLDAGFSHYKITPILGLRSLIEVYP
notes: resveratrol O-methyltransferase (VvROMT), Vitis vinifera, GenBank FM178870, with W20A; made by Gibson Assembly on pET25-GB1-ROMT; source: E. coli BL21 (DE3), purified (IMAC HisTrap FF, TEV cleavage, second IMAC); not shown: His tag (on GB1), N-terminal, cleaved; GB1, N-terminal, cleaved
One may read the stoichiometry N as a count of units in the complex or per binding partner. On to B1, for which the “stoichiometry N” value amounted to 2.

B2: VvROMT variant F24A (enzyme, Vitis vinifera, UniProt B6VJS4 1-357, looked up)
chain: MDLANGVISAELLHAQAHVWNHIANFIKSMSLKCAIQLGIPDIIHNHGKPMTLPELVAKLPVHPKRSQCVYRLMRILVHSGFLAAQRVQQGKEEEGYVLTDASRLLLMDDSLSIRPLVLAMLDPILTKPWHYLSAWFQNDDPTPFHTAYERSFWDYAGHEPQLNNSFNEAMASDARLLTSVLLKEGQGVFAGLNSLVDVGGGTGKVAKAIANAFPHLNCTVLDLSHVVAGLQGSKNLNYFAGDMFEAIPPADAILLKWILHDWSNEECVKILKRCREAIPSKENGGKVIIIDMIMMKNQGDYKSTETQLFFDMTMMIFAPGRERDENEWEKLFLDAGFSHYKITPILGLRSLIEVYP
notes: resveratrol O-methyltransferase (VvROMT), Vitis vinifera, GenBank FM178870, with F24A; made by Gibson Assembly on pET25-GB1-ROMT; source: E. coli BL21 (DE3), purified (IMAC HisTrap FF, TEV cleavage, second IMAC); not shown: His tag (on GB1), N-terminal, cleaved; GB1, N-terminal, cleaved
Turning to B2, the “stoichiometry N” value is 2.

The values are drawn from PMC8122247, “Rational Design of Resveratrol O-methyltransferase for the Production of Pinostilbene” (International Journal of Molecular Sciences, 2021).
